Measured values published in US7125658B2, “Small protein that interacts with a ribonucleotide reductase subunit and uses thereof” (The Trustees of Columbia University in the City of New York, priority 1998, dated 2006).
Ends that are not written are not given here.

Legend:
GAD-SML1 = biological target: T1, GAD-SML1 (Saccharomyces cerevisiae, UniProt Q04964); experiment: yeast two-hybrid assay against GAD-SML1; assay type: cell-based; parameters: key to HIS3 reporter / ADE2 reporter: + signifies growth on histidine-less and adenine-less media; +/− signifies constructs unable to grow on adenine-less medium but able to give rise to white colonies on YPD medium
T1 construct: expressed in transfected cells; host or cells: S. cerevisiae two-hybrid strain PJ69-4A
T1 sequence (Q04964 1-104): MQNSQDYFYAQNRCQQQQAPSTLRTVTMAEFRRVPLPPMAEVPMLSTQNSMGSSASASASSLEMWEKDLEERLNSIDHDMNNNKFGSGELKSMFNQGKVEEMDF
Source text: (§1) The strains and plasmids for two-hybrid analysis were PJ69-4A, pGBD-C2, pGAD-C2 (James et al., 1996) and pACTII (CLONTECH® Inc.). The primer pair pB-SML1 5′ (SEQ ID NO: 11) and pGBD-SML1 3′ (SEQ ID NO: 13) (Table 4) was used to amplify the SML1 ORF. After digestion with BamHI and PstI, this PCR product was cloned into the BamHI-PstI sites of pGBD-C2 to construct plasmid pWJ728. Similarly, plasmid pWJ684 contains a BamHI fragment from the PCR product of the SML1 ORF generated using the primer pair pB-SML1 5′ and pB-SML1 3′ (SEQ ID NO: 12) (Table 4) and inserted at the BamHI site of pACTII. PCR fragments containing the RNR1 or the RNR2 ORF were generated by primer pairs RNR1-ORF 5′ (SEQ ID NO: 14) and RNR1 3′ (SEQ ID NO: 15) or RNR2-ORF 5′ (SEQ ID NO: 17) and RNR2 3′ (SEQ ID NO: 16) (Table 4). These fragments were cloned into the BamHI-PstI site of pGBD-C2 and pGAD-C2 to construct pWJ731 and pWJ745 or pWJ729 and pWJ746 respectively.
(§2) The GAL1-HIS3 reporter was assayed on SC-HIS-LEU-TRP medium plus 1-2 mM 3-aminotriazole. The GAL2-ADE2 reporter was assayed on SC-ADE-LEU-TRP medium.

GAD = biological target: T2, GAD (Saccharomyces cerevisiae, UniProt P04386); experiment: yeast two-hybrid assay against GAD alone; assay type: cell-based
T2 construct: expressed in transfected cells; host or cells: S. cerevisiae two-hybrid strain PJ69-4A
T2 sequence (P04386 768-881 limits assumed): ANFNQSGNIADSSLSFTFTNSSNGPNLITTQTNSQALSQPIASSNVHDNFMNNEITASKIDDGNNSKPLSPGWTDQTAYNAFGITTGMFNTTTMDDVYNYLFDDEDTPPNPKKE
Source text: as §1, §2

GAD-RNR1 = biological target: T3, GAD-RNR1 (Saccharomyces cerevisiae, UniProt P21524); experiment: yeast two-hybrid assay against GAD-RNR1; assay type: cell-based; parameters: key to HIS3 reporter / ADE2 reporter: + signifies growth on histidine-less and adenine-less media; +/− signifies constructs unable to grow on adenine-less medium but able to give rise to white colonies on YPD medium
T3 construct: expressed in transfected cells; host or cells: S. cerevisiae two-hybrid strain PJ69-4A
T3 sequence (P21524 1-888): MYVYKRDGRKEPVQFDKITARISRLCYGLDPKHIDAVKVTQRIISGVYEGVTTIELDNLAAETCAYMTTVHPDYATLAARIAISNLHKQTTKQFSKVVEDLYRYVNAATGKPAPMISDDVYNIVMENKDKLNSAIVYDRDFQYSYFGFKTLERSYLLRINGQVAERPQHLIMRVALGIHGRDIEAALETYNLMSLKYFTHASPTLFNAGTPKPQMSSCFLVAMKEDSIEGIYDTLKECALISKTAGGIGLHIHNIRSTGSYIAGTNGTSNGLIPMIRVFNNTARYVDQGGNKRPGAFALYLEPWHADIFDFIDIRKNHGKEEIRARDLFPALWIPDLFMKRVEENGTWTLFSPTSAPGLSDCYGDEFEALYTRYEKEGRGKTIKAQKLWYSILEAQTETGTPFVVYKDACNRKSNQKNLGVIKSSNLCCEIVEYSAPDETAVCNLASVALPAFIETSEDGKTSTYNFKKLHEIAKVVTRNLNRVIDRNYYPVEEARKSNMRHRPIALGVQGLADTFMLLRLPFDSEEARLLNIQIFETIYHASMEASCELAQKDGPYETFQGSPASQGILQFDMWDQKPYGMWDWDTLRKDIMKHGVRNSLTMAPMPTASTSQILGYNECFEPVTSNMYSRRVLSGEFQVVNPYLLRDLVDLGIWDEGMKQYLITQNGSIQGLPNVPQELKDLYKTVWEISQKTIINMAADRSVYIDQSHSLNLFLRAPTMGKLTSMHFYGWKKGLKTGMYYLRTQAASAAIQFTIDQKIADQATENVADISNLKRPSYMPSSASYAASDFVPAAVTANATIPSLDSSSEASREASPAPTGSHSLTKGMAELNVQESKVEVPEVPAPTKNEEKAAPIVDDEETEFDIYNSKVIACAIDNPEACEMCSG
Source text: as §1, §2

[1] = biological target: T4, Recombinant yeast Rnr1 protein (large subunit of ribonucleotide reductase) (yeast (Saccharomyces cerevisiae), UniProt P21524 1-888); experiment: cell-based or functional assay
T4 sequence (looked up): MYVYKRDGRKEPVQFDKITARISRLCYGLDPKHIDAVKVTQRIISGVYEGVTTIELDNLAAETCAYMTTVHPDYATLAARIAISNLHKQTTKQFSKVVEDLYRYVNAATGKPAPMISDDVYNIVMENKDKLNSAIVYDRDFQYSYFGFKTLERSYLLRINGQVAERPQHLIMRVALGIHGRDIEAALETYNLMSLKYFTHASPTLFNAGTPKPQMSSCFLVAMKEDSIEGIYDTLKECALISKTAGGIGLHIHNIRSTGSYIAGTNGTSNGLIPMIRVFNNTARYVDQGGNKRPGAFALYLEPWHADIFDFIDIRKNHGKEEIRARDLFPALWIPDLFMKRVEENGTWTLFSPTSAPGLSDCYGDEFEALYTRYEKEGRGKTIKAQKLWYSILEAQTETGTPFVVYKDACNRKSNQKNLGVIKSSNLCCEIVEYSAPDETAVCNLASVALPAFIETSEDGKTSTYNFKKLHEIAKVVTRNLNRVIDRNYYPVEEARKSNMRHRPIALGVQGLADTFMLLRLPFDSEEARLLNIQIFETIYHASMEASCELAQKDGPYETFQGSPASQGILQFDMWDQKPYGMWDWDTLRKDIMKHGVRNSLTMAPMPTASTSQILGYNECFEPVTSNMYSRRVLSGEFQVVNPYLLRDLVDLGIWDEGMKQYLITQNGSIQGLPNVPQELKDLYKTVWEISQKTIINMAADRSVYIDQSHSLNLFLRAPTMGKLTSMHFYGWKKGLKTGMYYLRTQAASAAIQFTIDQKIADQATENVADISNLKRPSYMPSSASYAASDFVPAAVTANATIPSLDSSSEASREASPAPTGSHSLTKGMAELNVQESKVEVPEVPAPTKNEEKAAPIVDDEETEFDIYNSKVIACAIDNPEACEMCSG

[2] = biological target: T5, GAD (Gal4 activation domain alone, empty vector control) (UniProt P04386 768-881); experiment: cell-based or functional assay
T5 sequence (looked up): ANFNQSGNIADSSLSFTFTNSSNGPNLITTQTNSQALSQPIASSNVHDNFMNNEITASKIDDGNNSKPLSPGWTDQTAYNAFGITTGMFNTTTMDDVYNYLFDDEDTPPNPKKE

[3] = biological target: T6, GAD-Rnr1 two-hybrid fusion (plasmid pWJ745) (yeast (Saccharomyces cerevisiae), UniProt P21524 1-888); experiment: cell-based or functional assay
T6 sequence (looked up): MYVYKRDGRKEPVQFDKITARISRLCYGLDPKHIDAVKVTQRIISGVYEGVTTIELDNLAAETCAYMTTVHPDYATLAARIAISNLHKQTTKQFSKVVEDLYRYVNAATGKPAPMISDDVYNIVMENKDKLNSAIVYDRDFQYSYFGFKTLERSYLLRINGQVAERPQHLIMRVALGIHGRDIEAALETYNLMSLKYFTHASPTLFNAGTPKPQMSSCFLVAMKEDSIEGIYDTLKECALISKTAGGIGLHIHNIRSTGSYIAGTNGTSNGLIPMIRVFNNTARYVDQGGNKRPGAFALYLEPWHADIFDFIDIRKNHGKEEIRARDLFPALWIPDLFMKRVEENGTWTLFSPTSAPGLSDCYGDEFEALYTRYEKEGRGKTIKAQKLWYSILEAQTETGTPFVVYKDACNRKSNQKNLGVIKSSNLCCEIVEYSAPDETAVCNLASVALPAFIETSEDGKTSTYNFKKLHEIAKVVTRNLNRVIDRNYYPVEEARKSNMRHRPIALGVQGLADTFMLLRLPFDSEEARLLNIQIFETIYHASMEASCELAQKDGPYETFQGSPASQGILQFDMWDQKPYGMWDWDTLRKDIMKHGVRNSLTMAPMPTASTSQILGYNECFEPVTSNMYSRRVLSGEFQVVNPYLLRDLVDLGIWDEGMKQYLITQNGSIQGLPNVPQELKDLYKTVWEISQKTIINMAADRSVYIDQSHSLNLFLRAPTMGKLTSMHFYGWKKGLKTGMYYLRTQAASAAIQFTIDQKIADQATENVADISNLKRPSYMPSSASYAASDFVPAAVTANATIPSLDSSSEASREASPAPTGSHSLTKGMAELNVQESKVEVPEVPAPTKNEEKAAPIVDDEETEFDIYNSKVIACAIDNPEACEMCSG

[4] = biological target: T7, GAD-Sml1 two-hybrid fusion (plasmid pWJ684, pACTII) (Saccharomyces cerevisiae (yeast), UniProt Q04964 1-104); experiment: cell-based or functional assay
T7 sequence: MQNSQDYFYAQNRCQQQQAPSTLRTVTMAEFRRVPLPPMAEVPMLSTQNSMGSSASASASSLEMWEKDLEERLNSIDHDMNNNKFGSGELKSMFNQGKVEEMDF

[5] = SC-HIS-LEU-TRP plus 3-aminotriazole

B1: RNR1: GBD (Gal4 DNA binding domain) fusion of the RNR1 ORF in pGBD-C2, two-hybrid construct (protein)
chain: MYVYKRDGRKEPVQFDKITARISRLCYGLDPKHIDAVKVTQRIISGVYEGVTTIELDNLAAETCAYMTTVHPDYATLAARIAISNLHKQTTKQFSKVVEDLYRYVNAATGKPAPMISDDVYNIVMENKDKLNSAIVYDRDFQYSYFGFKTLERSYLLRINGQVAERPQHLIMRVALGIHGRDIEAALETYNLMSLKYFTHASPTLFNAGTPKPQMSSCFLVAMKEDSIEGIYDTLKECALISKTAGGIGLHIHNIRSTGSYIAGTNGTSNGLIPMIRVFNNTARYVDQGGNKRPGAFALYLEPWHADIFDFIDIRKNHGKEEIRARDLFPALWIPDLFMKRVEENGTWTLFSPTSAPGLSDCYGDEFEALYTRYEKEGRGKTIKAQKLWYSILEAQTETGTPFVVYKDACNRKSNQKNLGVIKSSNLCCEIVEYSAPDETAVCNLASVALPAFIETSEDGKTSTYNFKKLHEIAKVVTRNLNRVIDRNYYPVEEARKSNMRHRPIALGVQGLADTFMLLRLPFDSEEARLLNIQIFETIYHASMEASCELAQKDGPYETFQGSPASQGILQFDMWDQKPYGMWDWDTLRKDIMKHGVRNSLTMAPMPTASTSQILGYNECFEPVTSNMYSRRVLSGEFQVVNPYLLRDLVDLGIWDEGMKQYLITQNGSIQGLPNVPQELKDLYKTVWEISQKTIINMAADRSVYIDQSHSLNLFLRAPTMGKLTSMHFYGWKKGLKTGMYYLRTQAASAAIQFTIDQKIADQATENVADISNLKRPSYMPSSASYAASDFVPAAVTANATIPSLDSSSEASREASPAPTGSHSLTKGMAELNVQESKVEVPEVPAPTKNEEKAAPIVDDEETEFDIYNSKVIACAIDNPEACEMCSG
- LacZ activity (GAD-SML1): 85 ± 1 Miller Units
- ADE2 reporter (GAD-SML1; SC-ADE-LEU-TRP): +
- HIS3 reporter (GAD-SML1; [5]): +
- LacZ activity (GAD): 0.8 ± 0.2 Miller Units
- LacZ activity (GAD-RNR1): 2.9 ± 0.5 Miller Units
- ADE2 reporter (GAD-RNR1; SC-ADE-LEU-TRP): +/−
- HIS3 reporter (GAD-RNR1; [5]): +

Molecule: Ac-QGKVEEMDF [N-acetylated nonapeptide corresponding to the last 9 amino acids of Sml1p]
- IC50, in vitro yeast RNR assay [1]: ~300 µM

B2: GBD-Rnr1 two-hybrid fusion (plasmid pWJ731) (other, UniProt P04386 1-147, looked up)
chain: MKLLSSIEQACDICRLKKLKCSKEKPKCAKCLKNNWECRYSPKTKRSPLTRAHLTEVESRLERLEQLFLLIFPREDLDMILKMDSLQDIKALLTGLFVQDNVNKDAVTDRLASVETDMPLTLRQHRISATSSSEESSNKGQRQLTVSMYVYKRDGRKEPVQFDKITARISRLCYGLDPKHIDAVKVTQRIISGVYEGVTTIELDNLAAETCAYMTTVHPDYATLAARIAISNLHKQTTKQFSKVVEDLYRYVNAATGKPAPMISDDVYNIVMENKDKLNSAIVYDRDFQYSYFGFKTLERSYLLRINGQVAERPQHLIMRVALGIHGRDIEAALETYNLMSLKYFTHASPTLFNAGTPKPQMSSCFLVAMKEDSIEGIYDTLKECALISKTAGGIGLHIHNIRSTGSYIAGTNGTSNGLIPMIRVFNNTARYVDQGGNKRPGAFALYLEPWHADIFDFIDIRKNHGKEEIRARDLFPALWIPDLFMKRVEENGTWTLFSPTSAPGLSDCYGDEFEALYTRYEKEGRGKTIKAQKLWYSILEAQTETGTPFVVYKDACNRKSNQKNLGVIKSSNLCCEIVEYSAPDETAVCNLASVALPAFIETSEDGKTSTYNFKKLHEIAKVVTRNLNRVIDRNYYPVEEARKSNMRHRPIALGVQGLADTFMLLRLPFDSEEARLLNIQIFETIYHASMEASCELAQKDGPYETFQGSPASQGILQFDMWDQKPYGMWDWDTLRKDIMKHGVRNSLTMAPMPTASTSQILGYNECFEPVTSNMYSRRVLSGEFQVVNPYLLRDLVDLGIWDEGMKQYLITQNGSIQGLPNVPQELKDLYKTVWEISQKTIINMAADRSVYIDQSHSLNLFLRAPTMGKLTSMHFYGWKKGLKTGMYYLRTQAASAAIQFTIDQKIADQATENVADISNLKRPSYMPSSASYAASDFVPAAVTANATIPSLDSSSEASREASPAPTGSHSLTKGMAELNVQESKVEVPEVPAPTKNEEKAAPIVDDEETEFDIYNSKVIACAIDNPEACEMCSG
- two-hybrid LacZ activity [2]: 0.8 Miller Units
- two-hybrid LacZ activity [3]: 2.9 Miller Units
- two-hybrid LacZ activity [4]: 85 Miller Units

Molecule: Ac-KEINFDDDF [N-acetylated nonapeptide corresponding to the last 9 amino acids of Rnr4p]
- IC50, in vitro yeast RNR assay [1]: 30 µM
